# ± gives the uncertainty stated by the source.
# Test: protein stability index of a GFP-peptide fusion (yeast GPS) (PSI 1-4); higher = more stable; sorted into four equal gates, so the index is relative within each strain
# Conditions: doa10∆
# Method in brief: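 Tiled 17-residue peptides from yeast proteins were fused downstream of GFP on a plasmid that also expresses Cherry, and the pooled library was carried in yeast. Mid-log cultures grown in leucine-free medium were sorted into four equal gates by GFP/Cherry fluorescence ratio. Plasmids from each gate were PCR-amplified and Illumina-sequenced, and reads were assigned to strains by barcodes. Each peptide's protein stability index is the sum, over gates, of the gate's read frequency multiplied by its gate number.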
row,Sequence,protein stability index
1,CANKYMTTVSGRDAFHL [RPL10],2.24 ± 0.24
2,CASIPIAIIKDTSDIIV [RRP46],1.73 ± 0.044

# Same assay, conditions: pdr5∆
row,Sequence,protein stability index
1,AGLEITSDNLLTITKAA [RPP1B],2.55 ± 0.048
2,AGMTTIVRDLDRPGSKF [RPL3],3.24 ± 0.18
3,AGNSQITSGGFLLKAYI [SRB5],2.53 ± 0.097
4,AHAIDQMTWRQWLNNAL [POP8],2.6 ± 0.046
5,AHIEKQSLDTIGGSDAA [RPO21],3.25 ± 0.11
6,AHLWQKIHESIVFDICQ [PRP8],2.69 ± 0.11
7,AIFPYQDPIFGSVLLTL [ECM29],1.84 ± 0.057
8,AIIYQRGKDGKLHVAAK [YGL100W/SEH1],3.31 ± 0.1
9,AIKDKLEQDLHFENAKV [YIL149C/MLP2],3.29 ± 0.075
10,AIMNCADNSGARNLYII [RPL23A],3.14 ± 0.17
11,AINLMGVKNNLLTPKSG [RPO31],2.76 ± 0.12
12,AIPNPEDVVAISSRTFG [RPS0A],2.94 ± 0.05
13,AIRADPAFKPTEKKFTK [RPL5],3.15 ± 0.3
14,AIRKAPHNSKSLGFLQQ [RPN3],2.7 ± 0.086
15,AISQSLRDESLTVDNLS [PRE5],3.15 ± 0.089
16,AISTGNWSLKRFKMERA [RET1],1.93 ± 0.11
17,AITHMIDALGTEFSKND [SCL1],2.54 ± 0.044
18,AIVLPMKRADKFKDMGI [RPT5],3.11 ± 0.24
19,AKEKERMLEEAIDHLKA [YIL149C/MLP2],3.12 ± 0.054
20,AKEVKVLYHTSGAITFV [PRP8],2.5 ± 0.064
21,AKIDVMLTIARLGFFYN [RPN7],2.89 ± 0.14
22,AKLSDTLIIDQVRKDLG [NUT1],2.32 ± 0.16
23,AKQAKIRAGEFDVVLTT [SNF2],3.3 ± 0.13
24,AKRAQFRKKRKFELGRQ [RPS8A],3.28 ± 0.077
25,AKTFGASVRIFLYPSNI [RPL33A],2.65 ± 0.056
26,ALDFRNVSIVANYIKER [SMC4],2.04 ± 0.058

row,Sequence,protein stability index
1,ALECRLASAIASGLLRA [CSN12],2.08 ± 0.082
2,ALGMMTRISSQFEKSRK [RET1],1.27 ± 0.09
3,ALKDPQTDADRVKDPQW [RIP1],3.68 ± 0.23
4,ALLIAGHDADDGYQLFH [PUP2],2.86 ± 0.17
5,ALMRCSFEETVEILFEA [RPO21],2.6 ± 0.079
6,ALRALQENGTIFRGSLI [YDL088C/ASM4],1.68 ± 0.076
7,ALSAYHKVQTKLTRELE [RPS7B],2.54 ± 0.058
8,ALSGNEGDASPFTDITV [RPB2],3.12 ± 0.075
9,ALTTIKGVGRRYSNLVC [RPS18A],2.4 ± 0.084
10,ALVAGIERYPLKVTKKH [RPL27A],2.51 ± 0.12
11,AMEFIFGNSLICEDPET [SMC2],2.25 ± 0.054
12,AMNDKDLTMGQVGERIK [RPO21],3.26 ± 0.14
13,AMREVNDEKRVKEEYDI [YIL149C/MLP2],2.57 ± 0.17
14,ANEQLKLFNRIVERETN [CSN12],2.73 ± 0.16
15,ANGGSTIISPHKDIPEE [DSN1],3.44 ± 0.16
16,ANHDDQDDIDEMVENSS [SRP68],3.2 ± 0.11
17,ANIFRIHSKSMSVERGI [RPT1],3.01 ± 0.14
18,ANLLQINVDNDPFFAQS [YML103C/NUP188],3.14 ± 0.06
19,ANNDINSLLSNFNDIPP [YDL088C/ASM4],2.87 ± 0.18
20,ANNGAAFSPLTTTRIQS [MED2],2.91 ± 0.06
21,ANNYSSNIGNNSINNNN [YDL088C/ASM4],3.19 ± 0.078
22,ANPKKLALMTAHSLSPK [CDC53],2.78 ± 0.054
23,ANVELTPSNIRSLCEVL [RPC34],1.68 ± 0.064
24,APGKVELAINLIRFDES [SMC2],3.11 ± 0.11
25,APIKKIIERYIKSKADA [PRP8],3.24 ± 0.12
26,APLKALVQEQVREFQRR [BRR2],1.24 ± 0.092

row,Sequence,protein stability index
1,APLNFNPIIENNVDNKY [SSN2],2.97 ± 0.049
2,APLNLEIPAYEFDGDKV [RIP1],2.54 ± 0.096
3,APNHSPEIDNLDDLVVL [RRP6],3.51 ± 0.11
4,APPQRPRFNRENKVSPA [RPS26A],2.83 ± 0.17
5,AQANNNNNGLPQNGNIN [GAL11],3.11 ± 0.049
6,AQAQAQAQAQAHAQHQP [GAL11],2.926 ± 0.023
7,AQEDVPYLLPYILEAEA [QCR7],1.79 ± 0.046
8,AQFRVPRYHSKNSFQQA [SWP82],2.57 ± 0.065
9,AQKYASIVGVDLSSAAS [FAS2],2.21 ± 0.082
10,AQNQGMFGAKPAGTSLF [YGL172W/NUP49],2.36 ± 0.064
11,AQNVPMNIIQQQQQQNT [GAL11],2.6 ± 0.042
12,AQSRNVEIEKRILKLGT [YGR119C/NUP57],3.15 ± 0.071
13,AQSSHIRAIRKVISEIL [RPS1A],1.624 ± 0.015
14,AQSVGCRVDFKNPHDII [RPL12A],2.4 ± 0.078
15,AQYCYKNGLYQEAFKIY [SRP72],2.94 ± 0.097
16,ARGTIEIVSDVKVVDAG [RPP0],2.21 ± 0.07
17,ARKELPIFDYIHIDALE [SIR3],2.34 ± 0.056
18,ARNVQVHQEPYVFNARP [RPS0A],3.25 ± 0.063
19,ARQQVAQQLRNQQQQQQ [GAL11],3.2 ± 0.13
20,ARRLKNRAARDRRAQRV [RPL19A],3.43 ± 0.1
21,ARSIDVEKGVNPTKSKE [ECM29],3.51 ± 0.24
22,ARTATVSKKWAAAGVCE [RPL14B],3.21 ± 0.084
23,ARTIKATLPYIKQDIPI [RPB2],2.3 ± 0.061
24,ARYVIATSTKVSVEGVN [RPL6A],1.52 ± 0.048
25,ASAGSKEGASTNWDDHA [YMR153W/NUP53],3.49 ± 0.14
26,ASDESLLRYGGAFTIAL [RPN2],3.35 ± 0.13

row,Sequence,protein stability index
1,ASLADVMSIESLVEVVF [FAS1],2.18 ± 0.067
2,ASLKHDNETKAMLINLI [RPN3],3.21 ± 0.27
3,ASPSAHTSSSDGNNEIF [RPN4],2.73 ± 0.046
4,ASSAVMNRRKIAMPKRR [YLR335W/NUP2],1.3 ± 0.071
5,ASSPIILEEGSSGMGAF [RPN10],3.04 ± 0.083
6,ASTGSGKTLAFVIPILI [PRP28],1.29 ± 0.079
7,ASVGDILKTLERSICAL [YML031W/NDC1],2.94 ± 0.088
8,ATALQTCAGGRLFNVVV [SMC2],2.9 ± 0.13
9,ATASAIAATAVASLVLA [RPL4A],1.78 ± 0.071
10,ATFLLTDIKDTLTKISM [MCD1],3.14 ± 0.13
11,ATKDNELNVKHVKQCQE [SMC2],3.35 ± 0.2
12,ATQMTLNTFHFAGVASK [RPO21],1.9 ± 0.076
13,ATSVESVDIGVETILSG [FAS2],2.9 ± 0.089
14,AVDHRRQNRNQEIFDAN [RPL13A],3.21 ± 0.058
15,AVEQRKKEKLDSGEVDA [DPB4],3.21 ± 0.17
16,AVFKIVLQPLLPRELPK [SNU114],1.76 ± 0.091
17,AVLKKIQSKAVEQGYED [YCG1],3.38 ± 0.092
18,AVSTIASISLAIGYPTL [RPP0],2.12 ± 0.056
19,AVSVANGFMHAGTTDNS [RPN2],1.4 ± 0.051
20,AVVVRGRYAGKKVVIVK [RPL27A],3.38 ± 0.067
21,AYFMVGAMGLLSSAGAK [RIP1],2.51 ± 0.11
22,AYGNWFNGLKPLIQNSM [PRP8],3.31 ± 0.099
23,AYLLLNAAGNTPDATKI [RPP2A],2.17 ± 0.036
24,AYPGKLICPQYGTENKD [CSL4],1.93 ± 0.068
25,AYSPKQDEQKHNENENS [RPO21],2.49 ± 0.072
26,CANKYMTTVSGRDAFHL [RPL10],2.64 ± 0.15

# From the supplement of paper PMC9732359
